Columns and labels:
[1] = target: tail hub of bacteriophage Epsilon15 (bacteriophage Epsilon15); assay: cryo-EM structure; asymmetric single-particle reconstruction of whole ϵ15 virions (iodixanol-purified, in PBS, graphene oxide-coated grids, Titan Krios 300 kV, RELION 2.0), with focused refinement of the portal at ~7 Å
[2] = target: portal protein gp4 of bacteriophage Epsilon15 (portal complex) (bacteriophage Epsilon15); assay: as above

tail hub of bacteriophage Epsilon15 (complex)
stoichiometry N [1]: 6

portal protein gp4 of bacteriophage Epsilon15 (portal complex) (natural protein)
stoichiometry N [2]: 12
